T1: amphyphisin SH3 (AMPH_HUMAN), P49418
T1 chain: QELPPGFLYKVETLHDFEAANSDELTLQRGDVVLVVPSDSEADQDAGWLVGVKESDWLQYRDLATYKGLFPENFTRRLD


What was measured:
[1] = target: T1, amphyphisin SH3 (AMPH_HUMAN), P49418; test: SPOT array
[2] = target: endophilin SH3 (SH3G2_HUMAN), Q99962; test: SPOT array

Binder | normalised SPOT signal, Boehringer light units (BLU); mean over the file's lines of this peptide [1] | normalised SPOT signal, Boehringer light units (BLU); mean over the file's lines of this peptide [2]
YERTLRRPVPLPHS [O94824 705-718] | 37 | 297
YGHIFRRPKGLFIS [P23368 123-136] | 35.9 | 110
YGLSPLRPPSVLPP [O14686 2329-2343] | 40 | 118
YGLTFRRPRGLFIT [Q16798 148-161] | 23.2 | 347
YGPNIGRPRKNVIA [Q9HB39 190-203] | 134 | 166
YHLPLRRPSPGFSW [O95428 295-308] | 135 | 1270
YHPNPKRPGLDREQ [Q8WXI7 2968-2981] | 43.3 | 34.1
YHPPIFRPMKRINL [Q9HC18 65-78] | 164 | 250
SPPIPRRPAEPPWP [Q9HBU2 317-330] | 33 | 1380
YHPPIFRPMKRITW [Q9GZT8 65-78] | 145 | 293
YIFSLVRPARYQRV [P41440 139-152] | 2220 | 1780
YKPPLSRPLRPGPW [Q9H1B5 714-727] | 1210 | 263
YKVNLKRPSPFWAE [Q9NR62 73-86] | 30.9 | 42.2
YKVNLKRPSPFWND [Q96HE7 77-90] | 47.4 | 28.6
YKVSPGRPPGSIKA [BAC04448 133-147] | 48.6 | 553
YLGKPSRPPHLLLE [Q9H5Q4 87-101] | 44.1 | 1770
YLQLPPRPPGTRAS [Q9H4M7 331-345] | 235 | 1230
YLTVLGRPDRPRDL [O94856 414-427] | 386 | 127
YPARPRRPASTAGS [Q9BTV6 12-25] | 4030 | 2010
SQKAFKRPSDLRQH [Q9P2F9 337-350] | 61.1 | 19
YPNKIKRPSLEDVT [Q13495 6-19] | 24.9 | 94.9

Binder | normalised SPOT signal, Boehringer light units (BLU); mean over the file's lines of this peptide [1] | normalised SPOT signal, Boehringer light units (BLU); mean over the file's lines of this peptide [2]
YPQDLPRPLRSREF [O43734 232-245] | 154 | 95.9
YQEYLKRPPESPPI [Q9BTL3 26-39] | 34.1 | 42.7
YQGGPPRPPMGMRP [O43670 455-469] | 87.9 | 614
YQHHPKRPSRQIHK [Q9HCL0 744-757] | 3940 | 432
YQRLPRRPGEPREV [Q9UHC9 721-734] | 116 | 143
YRHGISRPLRPLSS [Q9UBX1 412-425] | 1500 | 867
YRLPPTRPPASVSP [Q96LR7 16-30] | 150 | 1510
YRQQPKRPQKHIQK [Q9NPG4 759-772] | 103 | 183
YRRRFSRPSRARDI [Q03188 13-26] | 469 | 85.1
SQPGPAKPPAHRPS [Q9NPM2 248-262] | 39.8 | 176
YSLLFRRPPPSPSP [Q9NZY4 11-24] | 204 | 175
YSSSLERPRKLRAV [O75042 916-929] | 78.3 | 137
YTSKIFRPPRASHS [Q9Y397 160-173] | 1790 | 325
YTVPPARPPPPLTK [O43308 48-62] | 211 | 9170
YVDVIKRPLVKNPV [Q9P2Q0 703-716] | 26.4 | 29.7
YYLLPERPPYLDKY [Q9UD05 393-407] | 57.4 | 108
YYQIIKRPMDLSII [Q9BQQ4 1075-1088] | 78.4 | 85.7
SRLTLLRPEKDGAA [Q9H7S7 16-29] | 297 | 71.4
SRLTLLRPEKDGTA [Q9H7S7 328-341] | 242 | 112
ASLPPPRPQRPAET [Q9UFB1 199-212] | 210 | 81.6
SRLTLLRPKKDGAA [Q9H7S7 172-185] | 199 | 159
